Values joined by “and” are separate entries in the source; they are usually repeats but may differ in a detail not shown here. Equal values may be shown once.
## CAP256 VRC26 UCA (antibody)
CAP256SU_UCA_OPT_3.0
  fold reduction of neutralization reactivity: 3 fold and 4 fold
CAP256SU (HIV-1)
  IC50, neutralization: 35 µg/mL

## CH01 UCA (antibody)
CAP256SU_UCA_OPT
  IC50, neutralization: 1.92 µg/mL

## PCT64 LMCA (antibody)
CH505 UCA_OPT2+N332
  IC50, pseudovirus neutralization: 105 µg/mL
CH505 UCA_OPT_2+H130D
  50% neutralization, pseudovirus neutralization: 100 µg/mL

## PG16 RUA (antibody)
CAM13K+K169R (SIVcpz)
  fold enhancement of neutralization sensitivity: 10 fold
CAM13RRK
  fold enhancement of neutralization sensitivity: 50 fold
CH505_V2UCAOPT_v3.0
  fold improvement of neutralization sensitivity: 100 fold

Reference: patent US20250340598A1
